Assay results as given in paper PMC3777628 (Virology, 2013).

B1: MBP-Agno (17–71) (domain or fragment)
chain: TWSGTKKRAQRILIFLLEFLLDFCTGEDSVDGKKRQRHSGLTEQTYSALPEPKAT
B2: MBP-Agno (28–71) (domain or fragment)
chain: ILIFLLEFLLDFCTGEDSVDGKKRQRHSGLTEQTYSALPEPKAT
B3: MBP-Agno (25–71) (domain or fragment)
chain: AQRILIFLLEFLLDFCTGEDSVDGKKRQRHSGLTEQTYSALPEPKAT
B4: MBP-Agno Ala(34–36) (natural protein)
chain: MVLRQLSRKASVKVSKTWSGTKKRAQRILIFLLAAALDFCTGEDSVDGKKRQRHSGLTEQTYSALPEPKAT

Biological target: the molecule itself
Test: SDS-PAGE of SDS-resistant dimers and oligomers
B1: binds. B2: binds. B3: binds. B4: binds.
